Measurements: patent publication US20190225979A1

Target: fetuin

“recombinant protein of H5 hemagglutinin ectodomain (H5HA)” gave an absorbance at 450 nm of 0.15 O.D. 450.
